Data as given in patent publication US20100129344.

T1: IGFBP-4 (human, GroPep), P22692
T1 chain: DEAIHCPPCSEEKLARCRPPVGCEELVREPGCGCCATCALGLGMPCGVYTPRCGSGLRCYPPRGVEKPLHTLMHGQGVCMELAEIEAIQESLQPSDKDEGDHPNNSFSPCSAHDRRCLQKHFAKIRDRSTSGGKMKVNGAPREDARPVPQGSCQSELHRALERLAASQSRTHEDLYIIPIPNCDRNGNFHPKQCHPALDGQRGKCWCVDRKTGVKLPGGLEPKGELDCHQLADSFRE

T2: Recombinant phosphorylated IGFBP-1 (human), intact, P08833
T2 chain: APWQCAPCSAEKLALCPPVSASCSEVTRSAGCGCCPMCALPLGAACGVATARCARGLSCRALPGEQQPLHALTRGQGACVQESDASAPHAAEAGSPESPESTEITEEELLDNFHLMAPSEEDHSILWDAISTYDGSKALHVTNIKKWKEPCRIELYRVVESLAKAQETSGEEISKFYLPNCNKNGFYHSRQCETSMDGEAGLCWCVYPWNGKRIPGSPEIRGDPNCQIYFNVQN

T3: Recombinant non-phosphorylated IGFBP-1 (human), P08833
T3 chain: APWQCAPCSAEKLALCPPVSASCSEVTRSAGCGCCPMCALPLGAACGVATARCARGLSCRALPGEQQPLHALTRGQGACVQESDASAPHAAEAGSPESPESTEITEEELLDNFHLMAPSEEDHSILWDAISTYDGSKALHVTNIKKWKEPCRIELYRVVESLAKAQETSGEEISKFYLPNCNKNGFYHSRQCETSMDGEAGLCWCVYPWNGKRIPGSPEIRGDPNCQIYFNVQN

T4: IGFBP-2 (human, GroPep), P18065
T4 chain: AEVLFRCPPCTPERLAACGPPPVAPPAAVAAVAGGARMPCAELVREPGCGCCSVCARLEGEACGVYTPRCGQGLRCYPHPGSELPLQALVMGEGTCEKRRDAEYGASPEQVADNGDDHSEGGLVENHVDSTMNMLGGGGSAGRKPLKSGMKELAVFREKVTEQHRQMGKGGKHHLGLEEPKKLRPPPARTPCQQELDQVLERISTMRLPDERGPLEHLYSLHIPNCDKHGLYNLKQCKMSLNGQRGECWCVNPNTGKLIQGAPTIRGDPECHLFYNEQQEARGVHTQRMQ

T5: IGFBP-6 (human, GroPep), P24592
T5 chain: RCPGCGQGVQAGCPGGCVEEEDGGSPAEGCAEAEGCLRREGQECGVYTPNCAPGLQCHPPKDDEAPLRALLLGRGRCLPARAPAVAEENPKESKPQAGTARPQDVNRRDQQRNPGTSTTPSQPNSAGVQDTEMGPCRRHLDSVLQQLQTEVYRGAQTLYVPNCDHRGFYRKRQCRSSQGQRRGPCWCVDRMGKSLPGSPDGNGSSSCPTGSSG

T6: Dephosphorylated preparation of HepG2-purified IGFBP-1, P08833
T6 chain: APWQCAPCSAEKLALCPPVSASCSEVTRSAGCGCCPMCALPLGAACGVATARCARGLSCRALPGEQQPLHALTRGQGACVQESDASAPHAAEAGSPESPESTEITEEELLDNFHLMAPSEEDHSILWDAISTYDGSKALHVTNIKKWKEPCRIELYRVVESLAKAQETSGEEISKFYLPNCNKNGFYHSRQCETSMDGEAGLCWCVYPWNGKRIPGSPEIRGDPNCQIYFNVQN

T7: Highly phosphorylated HepG2-purified IGFBP-1, P08833
T7 chain: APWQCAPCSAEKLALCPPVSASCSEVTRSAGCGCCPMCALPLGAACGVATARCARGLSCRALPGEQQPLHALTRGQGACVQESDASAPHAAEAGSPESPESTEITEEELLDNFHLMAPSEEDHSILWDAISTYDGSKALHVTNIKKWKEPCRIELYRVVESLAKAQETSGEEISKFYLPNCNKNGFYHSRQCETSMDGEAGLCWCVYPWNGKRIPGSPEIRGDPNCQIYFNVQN


How the values were obtained:
[1] = target: Glycosylated IGFBP-3 (human, GroPep), P17936
[2] = target: T1, IGFBP-4 (human, GroPep), P22692
[3] = target: T2, Recombinant phosphorylated IGFBP-1 …
[4] = target: IGFBP-5 (human, Upstate), P24593
[5] = target: T3, Recombinant non-phosphorylated IGFBP-1 …
[6] = target: T4, IGFBP-2 (human, GroPep), P18065
[7] = target: T5, IGFBP-6 (human, GroPep), P24592
[8] = target: T6, Dephosphorylated preparation of …
[9] = target: T7, Highly phosphorylated HepG2-purified …

Chain of IGFBP-5 (human, Upstate), P24593 (P24593 21-272): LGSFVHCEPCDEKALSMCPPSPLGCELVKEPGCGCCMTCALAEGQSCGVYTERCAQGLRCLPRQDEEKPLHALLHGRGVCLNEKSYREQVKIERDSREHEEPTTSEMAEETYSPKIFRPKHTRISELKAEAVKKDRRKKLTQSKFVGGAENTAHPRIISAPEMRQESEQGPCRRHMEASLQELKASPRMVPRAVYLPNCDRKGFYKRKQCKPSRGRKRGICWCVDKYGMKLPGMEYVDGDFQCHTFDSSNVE
Chain of Glycosylated IGFBP-3 (human, GroPep), P17936 (P17936 28-291): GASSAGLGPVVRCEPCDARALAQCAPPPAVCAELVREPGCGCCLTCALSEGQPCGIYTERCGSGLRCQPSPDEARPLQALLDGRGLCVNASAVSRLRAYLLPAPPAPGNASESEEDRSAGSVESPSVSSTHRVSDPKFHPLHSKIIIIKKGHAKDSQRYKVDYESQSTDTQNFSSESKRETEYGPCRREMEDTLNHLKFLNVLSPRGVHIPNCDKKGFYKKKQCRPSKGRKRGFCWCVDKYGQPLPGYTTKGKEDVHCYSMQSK

Row | Protein | cleavage of IGFBP by urine, 2 h at 37 C, neutral conditions [1] | cleavage of IGFBP by urine, 2 h at 37 C, neutral conditions [2] | proteolysis of IGFBP-1 (SDS-PAGE, silver staining) [3] | time course of degradation by 0.5 µl urine at 37 C (radioiodinated substrate, SDS-PAGE, autoradiography) [3] | cleavage of IGFBP by urine, 2 h at 37 C, neutral conditions [4] | cleavage of radioiodinated recombinant npIGFBP-1 by 0.25 µl heparin eluate at pH 2 and 7 (2 h, 37 C; SDS-PAGE, autoradiography) [5] | cleavage of radioiodinated recombinant npIGFBP-1 by 0.25 µl heparin eluate at pH 2 to 8 (2 h, 37 C; SDS-PAGE, autoradiography) [5] | cleavage of radioiodinated recombinant npIGFBP-1 by 0.5 µl urine after preincubation with 2, 5 or 10 ng IGF-I [5] | cleavage of radioiodinated recombinant npIGFBP-1 by 0.5 µl urine after preincubation with 2, 5 or 10 ng IGF-II [5] | cleavage of radioiodinated recombinant npIGFBP-1 by 0.5 µl urine after preincubation with 2, 5 or 10 ng insulin [5] | cleavage of radioiodinated recombinant npIGFBP-1 by 0.5 µl urine alone at pH 7 (2 h, 37 C; SDS-PAGE, autoradiography) [5] | cleavage of radioiodinated recombinant npIGFBP-1 by 0.5 µl urine at pH 2 to 8 (2 h, 37 C; SDS-PAGE, autoradiography); the neutral range is meant [5] | time course of degradation by 0.5 µl urine at 37 C (radioiodinated substrate, SDS-PAGE, autoradiography) [5] | cleavage of IGFBP by urine, 2 h at 37 C, neutral conditions [6] | cleavage of IGFBP by urine, 2 h at 37 C, neutral conditions [7] | cleavage of IGFBP-1 by urine, 2 h at 37 C, neutral conditions (affinity labelling with radioiodinated IGF-I, SDS-PAGE, autoradiography) [8] | cleavage of IGFBP-1 by urine, 2 h at 37 C, neutral conditions (affinity labelling with radioiodinated IGF-I, SDS-PAGE, autoradiography) [9] | proteolysis of IGFBP-1 [3]
1 | Azurocidin, native, partially purified from human urine by heparin affinity chromatography (protein) IVGGRKARPRQFPFLASIQNQGRHFCGGALIHARFVMTAASCFQSQNPGVSTVVLGAYDLRRRERQSRQTFSISSMSENGYDPQQNLNDLMLLQLDREANLTSSVTILPLPLQNATVEAGTRCQVAGWGSQRSGGRLSRFPRFVNVTVTPEDQCRPNNVCTGVLTRRGGICNGDGGTPLVCEGLAHGVASFSLGPCGRGPDFFTRVALFRDWIDGVLNNPGP | 2 µl had minimal effect on ... glycosylated (g) IGFBP-3 | 2 µl had minimal effect on ... not shown here, IGFBP-4 | Azurocidin-dependent proteolysis of phosphorylated IGFBP-1 was seen within minutes, using a protease:substrate molar ratio of 1:3,500 | no difference was found in the rate of degradation of each isoform, with fragments visible within 3 min, and substantial degradation by 2 h | 2 µl had minimal effect on ... IGFBP-5 | eluate at pH 2: strong 30K band, no fragments; eluate at pH 7: faint 30K band and a strong band at 14.3K | the 30K band is strong at pH 2 and 4, a little weaker at pH 5, thin at pH 6 and absent at pH 7, 7.5 and 8; bands at 14.3K appear at pH 5 and 6 and are strongest at pH 7 and 7.5 | at 2, 5 and 10 ng IGF-I the upper band is kept, weaker than in the untreated lane (*), and the lower band is only faint; no clear change from 2 to 10 ng | at 2, 5 and 10 ng IGF-II the upper band is kept, weaker than in the untreated lane (*), and the lower band is only faint; no clear change from 2 to 10 ng | at all three amounts of insulin the upper band is as faint as with urine alone and the lower band is seen | lane U: the upper band of the untreated lane (*) is nearly gone and a strong lower band appears | the 30K band is strong at pH 6, weaker at pH 5, faint at pH 7 and absent at pH 7.5 and 8; strong fragment bands at 14.3K at pH 7, 7.5 and 8 (at pH 2 and 4 the 30K band is also absent, with only faint signal near 14.3K) | no difference was found in the rate of degradation of each isoform, with fragments visible within 3 min, and substantial degradation by 2 h | 2 µl had minimal effect on IGFBP-2 | 2 µl had minimal effect on ... not shown here, IGFBP-4 and IGFBP-6 | One µl of urine cleaved more than 50% of each IGFBP-1 isoform | One µl of urine cleaved more than 50% of each IGFBP-1 isoform | 
2 | Recombinant azurocidin 27-250, purified from murine myeloma cells (R&D Systems) (protein) IVGGRKARPRQFPFLASIQNQGRHFCGGALIHARFVMTAASCFQSQNPGVSTVVLGAYDLRRRERQSRQTFSISSMSENGYDPQQNLNDLMLLQLDREANLTSSVTILPLPLQNATVEAGTRCQVAGWGSQRSGGRLSRFPRFVNVTVTPEDQCRPNNVCTGVLTRRGGICNGDGGTPLVCEGLAHGVASFSLGPCGRGPDFFTRVALFRDWIDGVLNNPGPGP |  |  |  |  |  |  |  |  |  |  |  |  |  |  |  |  |  | Recombinant human azurocidin^27-250, produced in mouse myeloma cells, had no effect on IGFBP-1 (data not shown)
